# Data reported in patent US20250319180A1 (BLUEFIN BIOMEDICINE, published 2025).
# Residue numbers refer to the chain shown, from its start. Numbers in names are those of the source.
# B1: 11D9 (antibody, V domains shown)
# VH: QVQLQESGPGLVKPSGTLSLTCTVSGGSISSSSWWSWVRLPPGKGLEWIGEIYHSGSTNYNPSLKSRVTISVDKSKNQFSLKLSSVTAADTAVYYCGGVRGVVMAFDIWGQGTMVTVSS
# VL: not shown
# notes: also called 11D9_19D5
# B2: 23F3 (antibody, V domains shown)
# VH: QVQLQESGPGLVKPSGTLSLTCAVSGGSISSSNWWSWVRQPPGKGLEWIGEIYHSGSTNYNPSLKSRVTISVDKSKNQFSLKLSSVTAADTAVYYCARVDILTGGNFDYWGQGTLVTVSS
# VL: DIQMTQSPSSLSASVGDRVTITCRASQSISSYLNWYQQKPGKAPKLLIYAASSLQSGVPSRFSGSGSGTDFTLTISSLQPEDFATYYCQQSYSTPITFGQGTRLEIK
# notes: also called 23F3_19B2
# B3: 2B11 (antibody, V domains shown)
# VH: QVQLVESGGGVVQPGRSLRLSCAASGFTFSNYGMHWVRQAPGKGLEWVAVIWYDGSNKYYADSVKGRFTISRDNSKNTLYLQMNSLRTEDTAVYYCARSIVVVTATLDYWGQGTLVTVSS
# VL: not shown
# notes: also called 2B11_25D1
# B4: 34H6 (antibody, V domains shown)
# VH: B3 VH with N31S, T88A, A105G, T106F, L107G
# VL: not shown
# notes: also called 34H6_20A1
# B5: 1F8 (antibody, V domains shown)
# VH: B3 VH with N57Y
# VL: not shown
# notes: also called 1F8_25B6; IF8
# B6: 6D11 (antibody, V domains shown)
# VH: QVQLQQWGAGLFKPSETLSLTCAVYGGSFSGSLWSWIRQPPGKGLEWIGEINHSGSTNYTPSLKSRVTISVDTSKNQFSLKLTSVTAADTAVYYCARGRHIVVVTAIHSPFDYWGQGTLVTVSS
# VL: DIQMTQSPSSLSASVGDRVTITCRASQGISNYLAWYQQKPGKVPKLLIFAASTLQSGVPSRFSGSGSGTDFTLTISSLQPEDVATYYCQKYNSAPRTFGQGTKLEIK
# notes: Recombinant antibody made in CHO cells; also called 6D11_25D6
# B7: 10B10 (antibody, V domains shown)
# VH: QVQLQQWGAGLLKPSETLSLTCAVYGGSFSGYYWHWIRQPPGKGLEWIGEINHSESTKYNPSLKSRVTISVDTSKNQFSLKLSSVTGADTAVYYCARGQHIVVVTDSLGDYWGQGTLVTVSS
# VL: B6 VL with F49Y
# notes: also called 10B10_25A1
# B8: 12G7 (antibody, V domains shown)
# VH: QVQLQQWGAGLLKPSETLSLTCAVYGGSFSGYYWSWIRQPPGKGLEWIGEINHSGSTYYNPSLKSRVTMSVDTSKNQFSLKLSSVTAADTAVYYCAKRWELGAFDIWGQGTMVTVSS
# VL: B6 VL with F49Y
# notes: Recombinant antibody from H2L2 mice (human variable regions), made in CHO cells, purified on Protein A and detected with anti-human IgG; also called 12G7_19A2; anti-LY6H antibody (12G7)
# B9: 12G7-S54A (antibody, V domains shown)
# VH: B8 VH with S54A
# VL: B6 VL with F49Y
# B10: 10B10-S54A (antibody, V domains shown)
# VH: B7 VH with S54A
# VL: B6 VL with F49Y
# B11: 6D11-41B4 (antibody, V domains shown)
# VH: B6 VH with S54A, N58Q
# VL: B6 VL
# B12: 22A5_19A5 (antibody, V domains shown)
# VH: QVQLVESGGGVVQPGRSLRLSCAASGFTFSSYGMHWVRQAPGKGLEWVAVIWYDGSNKYYADSVKGRFTISRDNSKNTLYLQMNSLRAEDTAVYYCARDLWFGESRGGMDVWGQGTTVTVSS
# VL: not shown
# notes: human anti-LY6H antibody
# Legend:
# [1] = molecular target: T1, recombinant human LY6H-ECD (C-terminal histidine tag) (human, UniProt O94772 26-115); test: Octet Red BLI, antibody on Protein A biosensor, recombinant human LY6H in solution
# T1 construct: The ectodomain was cloned by PCR with a non-native signal peptide and a C-terminal histidine tag; also called recombinant LY6H; hLY6H-ECD; not shown: C-terminal histidine tag
# T1 sequence (looked up): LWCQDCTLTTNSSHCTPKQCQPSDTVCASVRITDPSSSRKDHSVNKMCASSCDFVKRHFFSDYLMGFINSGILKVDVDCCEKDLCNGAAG
# Protocol: (§1) Affinity: The affinity of antibodies to various recombinant LY6H protein was determined on an Octet Red™ instrument. After loading reagents into a 96-well plate, the Octet Red with Protein A-conjugated biosensors was programmed as follows: 30 seconds for baseline #1; 120 seconds to immobilize the antibody; 30 seconds for baseline #2; 300 seconds for association of antibody to recombinant LY6H; and 300-600 seconds for dissociation of recombinant LY6H from the antibody.
# [2] = molecular target: T2, human LY6H, endogenous on cancer cell lines (H446, DMS79, H526, MOLT3, KE-37) (human, UniProt O94772 26-115); test: flow cytometry, antibody titrated 0.1-100 nM on H446 cells, MFI; column H446_EC50 (nM)
# T2 construct: Endogenous protein on human SCLC and T-ALL cell lines
# T2 sequence (looked up): T1 sequence (looked up)
# Protocol: (§2) The assay uses 3-5 fold dilutions (from 100 nM to 0.1 nM) of antibody of a stock antibody concentration (100 nM) in binding buffer. Serial diluted antibodies were incubated with live cells on ice for 30 minutes, after a brief wash, cells were incubated with Alexa Fluro® 488-conjugated anti-human IgG secondary antibody @1:100, or 15 μg/ml (709-546-149, Jackson ImmunoResearch). Acquisition of the MFI (Median Fluorescent Intensity) was performed on a MACSQuant® Flow Cytometers (Miltenyi Biotec). EC₅₀ was calculated using Dose-response EC₅₀ shift by global fitting from GraphPad Prism.
# (§3) An estimate of affinity is interpreted from one-half the concentration at which antibody binding first achieves saturation.
# [3] = molecular target: T2, human LY6H, endogenous on cancer cell …; test: flow cytometry, antibody titrated 0.1-100 nM on DMS79 cells, MFI; upper panel and table, column DMS79_EC50 (nM)
# Protocol: as §2, §3
# [4] = molecular target: T2, human LY6H, endogenous on cancer cell …; test: flow cytometry, antibody titrated 0.1-100 nM on MOLT3 cells, MFI; upper panel and table, column MOLT3_EC50 (nM)
# Protocol: as §2, §3
# [5] = molecular target: T2, human LY6H, endogenous on cancer cell …; test: flow cytometry, antibody titrated 0.1-100 nM on H526 cells, MFI; column H526_EC50 (nM); curve has no plateau at 100 nM
# Protocol: as §2, §3
# [6] = molecular target: T2, human LY6H, endogenous on cancer cell …; test: flow cytometry, antibody titrated 0.1-100 nM on DMS79 cells, MFI; lower panel and table, column DMS79_EC50 (nM)
# Protocol: as §2, §3
# [7] = molecular target: T2, human LY6H, endogenous on cancer cell …; test: flow cytometry, antibody titrated 0.1-100 nM on MOLT3 cells, MFI; lower panel and table, column MOLT3_EC50 (nM)
# Protocol: as §2, §3
# [8] = molecular target: T2, human LY6H, endogenous on cancer cell …; test: flow cytometry, antibody titrated 0.1-100 nM on H526 cells, MFI; column H526_EC50 (nM)
# Protocol: as §2, §3
# [9] = molecular target: T1, recombinant human LY6H-ECD (C-terminal …); test: Octet (bio-layer interferometry), table row Octet; antigen not named on the sheet, recombinant human LY6H per paragraph 455 and Table 8 (Table 8 prints 33 for 1F8)
# Protocol: as §1
# [10] = molecular target: T3, Macaca fascicularis LY6H expressed on 293T cells (plasmid BBP 492/598, M1-P140 plus Myc-DDK) (Macaca fascicularis, UniProt Q4R5M8 26-115); test: on-cell affinity by flow cytometry: unconjugated 1F8 (0.05-100 nM) competes with 1 nM PE-conjugated 1F8 on 293T cells expressing Macaca fascicularis LY6H (per legend paragraph 131); table row 293T-mmLY6H
# T3 construct: Full construct as encoded; also called monkey LY6H; not shown: Myc-DDK tag at the C-terminus
# T3 sequence: T1 sequence (looked up) with C80Y, A88V
# Protocol: (§4) Serial diluted antibodies were incubated with 293 cells expressing either human or Macaca fascicularis on ice for 4 hours, after a brief wash. Acquisition of the MFI (Median Fluorescent Intensity) was performed on a MACSQuant® Flow Cytometers (Miltenyi Biotec). On cell affinity (Kd) was calculated using dose-response EC50 shift by global fitting from GraphPad Prism™.
# as §4, with “live” for “293”, “cells” for “cells expressing either human or Macaca fascicularis”, “Dose-response EC₅₀” for “dose-response EC50”
# [11] = molecular target: T3, Macaca fascicularis LY6H expressed on …; test: flow cytometry on 293 cells expressing Macaca fascicularis LY6H (293-neo-cyno LY6H); antibody 1 ug/ml per paragraph 484; solid histogram = hIgG1 control [cont.]
# Protocol: Staining for flow cytometry was performed in 1× cold PBS with 0.5% BSA.
# [12] = molecular target: T3, Macaca fascicularis LY6H expressed on …; test: on-cell affinity by flow cytometry: unconjugated 12G7 (0.05-100 nM) competes with 1 nM PE-conjugated 12G7 on 293T cells expressing Macaca fascicularis LY6H (per legend paragraph 131); table row 293T-mmLY6H
# Protocol: as §4
# as §4, with “live” for “293”, “cells” for “cells expressing either human or Macaca fascicularis”, “Dose-response EC₅₀” for “dose-response EC50”
# [13] = molecular target: T2, human LY6H, endogenous on cancer cell …; test: flow cytometry, antibody titrated 0.1-100 nM on H526 cells, MFI; column H526_EC50 (nM); value lies above the highest concentration tested, curve has no plateau
# Protocol: as §2, §3
Binder,Kd [1] [nM],EC50 [2] [nM],EC50 [3] [nM],EC50 [4] [nM],EC50 [6] [nM],EC50 [7] [nM],also measured
B1,31,2.6,2.2,1.4,,,EC50 [5]: 13.2 nM
B2,,2.3,17.8,5.4,,,EC50 [5]: 73.5 nM
B3,,,,,3.4,3.9,
B4,,2.4,0.9,0.7,,,EC50 [8]: 2.9 nM
B5,33,,,,3.3,2.7,Kd [9]: 31 nM; Kd [10]: 21 nM
B6,22,,,,1.3,0.6,binding result [11]: binds
B7,47,,,,2,0.7,
B8,4,3,2.4,0.7,1.9,0.8,EC50 [8]: 1.9 nM; Kd [12]: 14.5 nM
B9,4,,,,,,
B10,42,,,,,,
B11,25,,,,,,
B12,,,,,,,EC50 [13]: 122 nM
